Experimental data: patent US20230372448A1, “THERAPEUTIC USE OF LONG-ACTING CONJUGATE OF TRIPLE AGONIST ACTING ON ALL OF GLUCAGON, GLP-1 AND GIP RECEPTORS AGAINST MULTIPLE SCLEROSIS” (HANMI PHARM. CO. ,LTD., priority 2020, published 2023)
Positions of bridges follow the written chain, without caps; N, C: chain ends. Non-standard residues stand in square brackets, D forms with d. No end group written: not given here. *: point of attachment. Acetyl(2-(4-imidazolyl)) = O=C(Cc1c[nH]cn1)*; Aib = CC(C)(N)C(=O)O

Molecular target: human GLP-1 receptor (human, UniProt P43220 24-463)
Test: cell-based or functional assay

Binder	In vitro activity (%) compared with native peptide: vs GLP-1 [%]
{Acetyl(2-(4-imidazolyl))}-[Aib]EGTFTSDYSIAMDEIHQKDFVDWLLAEKC (bridge 15-19; not fully specified) [triple agonist of SEQ ID NO: 91]	31.9
{Acetyl(2-(4-imidazolyl))}-[Aib]QGTFTSDYSKYLDEKRQKEFVNWLLAQC (bridge 15-19; not fully specified) [triple agonist of SEQ ID NO: 86]	28.4
H[Aib]QGTFTSDVSKYLDGQAAQEFVAWLLAGC (not fully specified) [triple agonist of SEQ ID NO: 9]	32.1
{Acetyl(2-(4-imidazolyl))}-[Aib]QGTFTSDYSKYLDEKRQKEFVQWLLDTKC (bridge 15-19; not fully specified) [triple agonist of SEQ ID NO: 89]	7.1
H[Aib]QGTFTSDVSKYLDGQAAQEFVAWLLKGC (not fully specified) [triple agonist of SEQ ID NO: 8]	14.2
H[Aib]EGTFTSDYSIAMDEIHQKDFVDWLLAEKC (bridge 16-20; not fully specified) [triple agonist of SEQ ID NO: 80]	8.1
Y[Aib]QGTFTSDYSKYLDEKAAKDFVQWLLDHHPSSGQPPPSC (bridge 16-20; not fully specified) [triple agonist of SEQ ID NO: 77]	38.7
H[Aib]QGTFTSDVSKYLDGQAAQEFVAWLLAGGGPSSGAPPPSC (not fully specified) [triple agonist of SEQ ID NO: 10]	46
Y[Aib]QGTFTSDYSKYLDEKAAKEFVQWLLDHHPSSGQPPPSC (bridge 16-20; not fully specified) [triple agonist of SEQ ID NO: 75]	35.1
{Acetyl(2-(4-imidazolyl))}-[Aib]QGTFTSDYSIAMDEIHQKDFVNWLLAQC (bridge 15-19; not fully specified) [triple agonist of SEQ ID NO: 85]	4.3
Y[Aib]QGTFTSDYSKYLDEKRAKDFVQWLLDHHPSSGQPPPSC (bridge 16-20; not fully specified) [triple agonist of SEQ ID NO: 76]	10.3
H[Aib]EGTFTSDYSIAMDEIHQKDFVNWLLAQKC (bridge 16-20; not fully specified) [triple agonist of SEQ ID NO: 79]	41.5
Y[Aib]QGTFTSDYSKYLDEKRAKEFVQWLLCHHPSSGQPPPS (bridge 16-20; not fully specified) [triple agonist of SEQ ID NO: 95]	2.1
{Acetyl(2-(4-imidazolyl))}-[Aib]EGTFTSDYSIAMDEIHQKDFVNWLLAQKC (bridge 15-19; not fully specified) [triple agonist of SEQ ID NO: 90]	7.4
{Acetyl(2-(4-imidazolyl))}-[Aib]QGTFTSDYSIAMDEIHQKDFVNWLLNTKC (bridge 15-19; not fully specified) [triple agonist of SEQ ID NO: 94]	0.5
{Acetyl(2-(4-imidazolyl))}-[Aib]EGTFTSDYSIAMDEIHQKDFVDWLLAEC (bridge 15-19; not fully specified) [triple agonist of SEQ ID NO: 84]	4.2
{Acetyl(2-(4-imidazolyl))}-[Aib]QGTFTSDYSKYLDEKRQKEFVQWLLNTKC (bridge 15-19; not fully specified) [triple agonist of SEQ ID NO: 88]	9.6
{Acetyl(2-(4-imidazolyl))}-[Aib]QGTFTSDYSIAMDEIHQKDFVNWLLAQKC (bridge 15-19; not fully specified) [triple agonist of SEQ ID NO: 92]	0.8
{Acetyl(2-(4-imidazolyl))}-[Aib]QGTFTSDYSKYLDEKRQKEFVNWLLAQKC (bridge 15-19; not fully specified) [triple agonist of SEQ ID NO: 93]	5.7
{Acetyl(2-(4-imidazolyl))}-[Aib]QGTFTSDYSIAMDEIHQKDFVNWLLNTC (bridge 15-19; not fully specified) [triple agonist of SEQ ID NO: 87]	0.9
H[Aib]QGTFTSDYSKYLDEKRQKEFVQWLLDTKC (bridge 16-20; not fully specified) [triple agonist of SEQ ID NO: 78]	51
{Acetyl(2-(4-imidazolyl))}-[Aib]QGTFTSDYSKYLDEKRQKEFVQWLLNTC (bridge 15-19; not fully specified) [triple agonist of SEQ ID NO: 81]	7.8
{Acetyl(2-(4-imidazolyl))}-[Aib]QGTFTSDYSKYLDEKRQKEFVQWLLDTC (bridge 15-19; not fully specified) [triple agonist of SEQ ID NO: 82]	9.5

Molecular target: T1, human GIP receptor (human, UniProt P48546 22-466)
T1 sequence (looked up): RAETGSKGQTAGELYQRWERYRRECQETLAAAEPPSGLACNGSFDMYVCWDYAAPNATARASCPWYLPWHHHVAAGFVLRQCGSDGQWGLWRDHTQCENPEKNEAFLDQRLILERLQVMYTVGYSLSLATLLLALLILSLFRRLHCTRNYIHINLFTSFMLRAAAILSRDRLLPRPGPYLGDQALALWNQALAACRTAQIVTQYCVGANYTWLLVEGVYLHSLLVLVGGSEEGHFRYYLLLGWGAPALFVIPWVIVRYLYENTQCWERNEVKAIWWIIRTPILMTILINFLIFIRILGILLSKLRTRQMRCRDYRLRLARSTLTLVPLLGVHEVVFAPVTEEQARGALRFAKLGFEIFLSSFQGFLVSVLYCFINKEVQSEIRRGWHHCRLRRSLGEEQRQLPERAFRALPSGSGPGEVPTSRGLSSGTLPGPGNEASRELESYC
Test: cell-based or functional assay

Binder	In vitro activity (%) compared with native peptide: vs GIP [%]
{Acetyl(2-(4-imidazolyl))}-[Aib]EGTFTSDYSIAMDEIHQKDFVDWLLAEKC (bridge 15-19; not fully specified) [triple agonist of SEQ ID NO: 91]	0.3
{Acetyl(2-(4-imidazolyl))}-[Aib]QGTFTSDYSKYLDEKRQKEFVNWLLAQC (bridge 15-19; not fully specified) [triple agonist of SEQ ID NO: 86]	0.2
H[Aib]QGTFTSDVSKYLDGQAAQEFVAWLLAGC (not fully specified) [triple agonist of SEQ ID NO: 9]	< 0.1
{Acetyl(2-(4-imidazolyl))}-[Aib]QGTFTSDYSKYLDEKRQKEFVQWLLDTKC (bridge 15-19; not fully specified) [triple agonist of SEQ ID NO: 89]	< 0.1
H[Aib]QGTFTSDVSKYLDGQAAQEFVAWLLKGC (not fully specified) [triple agonist of SEQ ID NO: 8]	< 0.1
H[Aib]EGTFTSDYSIAMDEIHQKDFVDWLLAEKC (bridge 16-20; not fully specified) [triple agonist of SEQ ID NO: 80]	0.1
Y[Aib]QGTFTSDYSKYLDEKAAKDFVQWLLDHHPSSGQPPPSC (bridge 16-20; not fully specified) [triple agonist of SEQ ID NO: 77]	35.5
H[Aib]QGTFTSDVSKYLDGQAAQEFVAWLLAGGGPSSGAPPPSC (not fully specified) [triple agonist of SEQ ID NO: 10]	< 0.1
Y[Aib]QGTFTSDYSKYLDEKAAKEFVQWLLDHHPSSGQPPPSC (bridge 16-20; not fully specified) [triple agonist of SEQ ID NO: 75]	18
{Acetyl(2-(4-imidazolyl))}-[Aib]QGTFTSDYSIAMDEIHQKDFVNWLLAQC (bridge 15-19; not fully specified) [triple agonist of SEQ ID NO: 85]	0.3
Y[Aib]QGTFTSDYSKYLDEKRAKDFVQWLLDHHPSSGQPPPSC (bridge 16-20; not fully specified) [triple agonist of SEQ ID NO: 76]	11.7
H[Aib]EGTFTSDYSIAMDEIHQKDFVNWLLAQKC (bridge 16-20; not fully specified) [triple agonist of SEQ ID NO: 79]	1.4
Y[Aib]QGTFTSDYSKYLDEKRAKEFVQWLLCHHPSSGQPPPS (bridge 16-20; not fully specified) [triple agonist of SEQ ID NO: 95]	< 0.1
{Acetyl(2-(4-imidazolyl))}-[Aib]EGTFTSDYSIAMDEIHQKDFVNWLLAQKC (bridge 15-19; not fully specified) [triple agonist of SEQ ID NO: 90]	< 0.1
{Acetyl(2-(4-imidazolyl))}-[Aib]QGTFTSDYSIAMDEIHQKDFVNWLLNTKC (bridge 15-19; not fully specified) [triple agonist of SEQ ID NO: 94]	< 0.1
{Acetyl(2-(4-imidazolyl))}-[Aib]EGTFTSDYSIAMDEIHQKDFVDWLLAEC (bridge 15-19; not fully specified) [triple agonist of SEQ ID NO: 84]	< 0.1
{Acetyl(2-(4-imidazolyl))}-[Aib]QGTFTSDYSKYLDEKRQKEFVQWLLNTKC (bridge 15-19; not fully specified) [triple agonist of SEQ ID NO: 88]	< 0.1
{Acetyl(2-(4-imidazolyl))}-[Aib]QGTFTSDYSIAMDEIHQKDFVNWLLAQKC (bridge 15-19; not fully specified) [triple agonist of SEQ ID NO: 92]	0.4
{Acetyl(2-(4-imidazolyl))}-[Aib]QGTFTSDYSKYLDEKRQKEFVNWLLAQKC (bridge 15-19; not fully specified) [triple agonist of SEQ ID NO: 93]	0.7
{Acetyl(2-(4-imidazolyl))}-[Aib]QGTFTSDYSIAMDEIHQKDFVNWLLNTC (bridge 15-19; not fully specified) [triple agonist of SEQ ID NO: 87]	< 0.1
H[Aib]QGTFTSDYSKYLDEKRQKEFVQWLLDTKC (bridge 16-20; not fully specified) [triple agonist of SEQ ID NO: 78]	0.12
{Acetyl(2-(4-imidazolyl))}-[Aib]QGTFTSDYSKYLDEKRQKEFVQWLLNTC (bridge 15-19; not fully specified) [triple agonist of SEQ ID NO: 81]	< 0.1
{Acetyl(2-(4-imidazolyl))}-[Aib]QGTFTSDYSKYLDEKRQKEFVQWLLDTC (bridge 15-19; not fully specified) [triple agonist of SEQ ID NO: 82]	< 0.1

Molecular target: human GCG receptor (human, UniProt P47871 26-477)
Sequence (P47871 26-477): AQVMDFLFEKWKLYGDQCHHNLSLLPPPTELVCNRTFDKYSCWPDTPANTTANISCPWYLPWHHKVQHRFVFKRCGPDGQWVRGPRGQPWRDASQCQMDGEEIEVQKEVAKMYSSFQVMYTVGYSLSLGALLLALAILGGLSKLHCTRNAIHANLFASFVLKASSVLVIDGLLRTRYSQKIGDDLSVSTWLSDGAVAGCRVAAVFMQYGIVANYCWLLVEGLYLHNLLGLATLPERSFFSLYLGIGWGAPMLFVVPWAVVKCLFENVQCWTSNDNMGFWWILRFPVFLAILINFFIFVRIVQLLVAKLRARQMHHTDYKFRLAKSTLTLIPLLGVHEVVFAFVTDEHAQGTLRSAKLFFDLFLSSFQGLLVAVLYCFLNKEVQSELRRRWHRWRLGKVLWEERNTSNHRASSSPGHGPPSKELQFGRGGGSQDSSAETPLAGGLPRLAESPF
Test: cell-based or functional assay

Binder	In vitro activity (%) compared with native peptide: vs Glucagon [%]
{Acetyl(2-(4-imidazolyl))}-[Aib]EGTFTSDYSIAMDEIHQKDFVDWLLAEKC (bridge 15-19; not fully specified) [triple agonist of SEQ ID NO: 91]	16.8
{Acetyl(2-(4-imidazolyl))}-[Aib]QGTFTSDYSKYLDEKRQKEFVNWLLAQC (bridge 15-19; not fully specified) [triple agonist of SEQ ID NO: 86]	0.4
H[Aib]QGTFTSDVSKYLDGQAAQEFVAWLLAGC (not fully specified) [triple agonist of SEQ ID NO: 9]	0.13
{Acetyl(2-(4-imidazolyl))}-[Aib]QGTFTSDYSKYLDEKRQKEFVQWLLDTKC (bridge 15-19; not fully specified) [triple agonist of SEQ ID NO: 89]	0.7
H[Aib]QGTFTSDVSKYLDGQAAQEFVAWLLKGC (not fully specified) [triple agonist of SEQ ID NO: 8]	0.1
H[Aib]EGTFTSDYSIAMDEIHQKDFVDWLLAEKC (bridge 16-20; not fully specified) [triple agonist of SEQ ID NO: 80]	0
Y[Aib]QGTFTSDYSKYLDEKAAKDFVQWLLDHHPSSGQPPPSC (bridge 16-20; not fully specified) [triple agonist of SEQ ID NO: 77]	12.2
H[Aib]QGTFTSDVSKYLDGQAAQEFVAWLLAGGGPSSGAPPPSC (not fully specified) [triple agonist of SEQ ID NO: 10]	< 0.1
Y[Aib]QGTFTSDYSKYLDEKAAKEFVQWLLDHHPSSGQPPPSC (bridge 16-20; not fully specified) [triple agonist of SEQ ID NO: 75]	8.5
{Acetyl(2-(4-imidazolyl))}-[Aib]QGTFTSDYSIAMDEIHQKDFVNWLLAQC (bridge 15-19; not fully specified) [triple agonist of SEQ ID NO: 85]	< 0.1
Y[Aib]QGTFTSDYSKYLDEKRAKDFVQWLLDHHPSSGQPPPSC (bridge 16-20; not fully specified) [triple agonist of SEQ ID NO: 76]	47.6
H[Aib]EGTFTSDYSIAMDEIHQKDFVNWLLAQKC (bridge 16-20; not fully specified) [triple agonist of SEQ ID NO: 79]	4.9
Y[Aib]QGTFTSDYSKYLDEKRAKEFVQWLLCHHPSSGQPPPS (bridge 16-20; not fully specified) [triple agonist of SEQ ID NO: 95]	0.4
{Acetyl(2-(4-imidazolyl))}-[Aib]EGTFTSDYSIAMDEIHQKDFVNWLLAQKC (bridge 15-19; not fully specified) [triple agonist of SEQ ID NO: 90]	< 0.1
{Acetyl(2-(4-imidazolyl))}-[Aib]QGTFTSDYSIAMDEIHQKDFVNWLLNTKC (bridge 15-19; not fully specified) [triple agonist of SEQ ID NO: 94]	< 0.1
{Acetyl(2-(4-imidazolyl))}-[Aib]EGTFTSDYSIAMDEIHQKDFVDWLLAEC (bridge 15-19; not fully specified) [triple agonist of SEQ ID NO: 84]	< 0.1
{Acetyl(2-(4-imidazolyl))}-[Aib]QGTFTSDYSKYLDEKRQKEFVQWLLNTKC (bridge 15-19; not fully specified) [triple agonist of SEQ ID NO: 88]	0.3
{Acetyl(2-(4-imidazolyl))}-[Aib]QGTFTSDYSIAMDEIHQKDFVNWLLAQKC (bridge 15-19; not fully specified) [triple agonist of SEQ ID NO: 92]	< 0.1
{Acetyl(2-(4-imidazolyl))}-[Aib]QGTFTSDYSKYLDEKRQKEFVNWLLAQKC (bridge 15-19; not fully specified) [triple agonist of SEQ ID NO: 93]	0.3
{Acetyl(2-(4-imidazolyl))}-[Aib]QGTFTSDYSIAMDEIHQKDFVNWLLNTC (bridge 15-19; not fully specified) [triple agonist of SEQ ID NO: 87]	< 0.1
H[Aib]QGTFTSDYSKYLDEKRQKEFVQWLLDTKC (bridge 16-20; not fully specified) [triple agonist of SEQ ID NO: 78]	14
{Acetyl(2-(4-imidazolyl))}-[Aib]QGTFTSDYSKYLDEKRQKEFVQWLLNTC (bridge 15-19; not fully specified) [triple agonist of SEQ ID NO: 81]	0.3
{Acetyl(2-(4-imidazolyl))}-[Aib]QGTFTSDYSKYLDEKRQKEFVQWLLDTC (bridge 15-19; not fully specified) [triple agonist of SEQ ID NO: 82]	1.1
